The results in this text go back to publication PMC4260915, “Colorful Protein-Based Fluorescent Probes for Collagen Imaging” (PLoS ONE, 2014).

In this assay the target is T1, Rat tail collagen type I (rat, UniProt P02454 152-1207; P02466 86-1125).
T1 construct: collagen alpha-1(I) chain, rat; collagen alpha-2(I) chain, rat; Immobilised as a collagen matrix formed on pH neutralisation; source: bought: Sigma-Aldrich, cat. no; C7661
Briefly: solid-phase collagen binding assay (fluorescence of bound probe, plate reader); rat tail collagen type I or BSA immobilised in wells of a 96-well plate, blocked with 2% BSA; probe dilutions 0.1–50 µM, 1–1.5 hours at room temperature; 20 mM HEPES pH 7.2, 150 mM NaCl; apparent overall Kd. The note with it: both partners purified.

T1 sequence (P02454 152-1207, chain 1 of 2): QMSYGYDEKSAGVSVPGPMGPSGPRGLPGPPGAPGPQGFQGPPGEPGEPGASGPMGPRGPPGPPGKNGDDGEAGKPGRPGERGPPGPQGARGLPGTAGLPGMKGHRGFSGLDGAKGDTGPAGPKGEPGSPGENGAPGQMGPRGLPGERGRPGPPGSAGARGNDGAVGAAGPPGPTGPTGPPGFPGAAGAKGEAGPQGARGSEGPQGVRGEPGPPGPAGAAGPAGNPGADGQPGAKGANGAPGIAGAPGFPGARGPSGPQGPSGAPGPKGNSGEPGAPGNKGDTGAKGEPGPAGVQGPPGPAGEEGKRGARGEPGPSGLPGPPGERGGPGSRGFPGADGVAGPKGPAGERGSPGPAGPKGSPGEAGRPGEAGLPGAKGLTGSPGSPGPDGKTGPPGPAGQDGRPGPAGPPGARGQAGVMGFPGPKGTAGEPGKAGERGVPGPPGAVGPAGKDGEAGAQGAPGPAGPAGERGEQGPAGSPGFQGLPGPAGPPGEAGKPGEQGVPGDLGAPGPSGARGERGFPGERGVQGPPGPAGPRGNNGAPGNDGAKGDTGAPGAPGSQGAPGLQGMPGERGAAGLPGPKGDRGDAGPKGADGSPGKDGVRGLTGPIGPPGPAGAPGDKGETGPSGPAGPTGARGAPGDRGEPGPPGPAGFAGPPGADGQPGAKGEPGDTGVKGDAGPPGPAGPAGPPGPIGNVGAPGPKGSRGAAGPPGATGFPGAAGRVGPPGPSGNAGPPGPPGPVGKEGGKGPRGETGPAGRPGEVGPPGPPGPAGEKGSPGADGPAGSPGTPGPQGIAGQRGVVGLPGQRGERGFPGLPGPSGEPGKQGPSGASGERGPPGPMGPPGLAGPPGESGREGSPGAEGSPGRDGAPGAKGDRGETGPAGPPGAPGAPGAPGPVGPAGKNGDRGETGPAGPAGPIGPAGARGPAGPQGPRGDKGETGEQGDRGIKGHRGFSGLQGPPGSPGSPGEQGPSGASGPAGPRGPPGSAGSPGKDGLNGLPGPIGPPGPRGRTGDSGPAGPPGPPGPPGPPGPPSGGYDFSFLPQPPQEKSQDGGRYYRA
T1 sequence (P02466 86-1125, chain 2 of 2): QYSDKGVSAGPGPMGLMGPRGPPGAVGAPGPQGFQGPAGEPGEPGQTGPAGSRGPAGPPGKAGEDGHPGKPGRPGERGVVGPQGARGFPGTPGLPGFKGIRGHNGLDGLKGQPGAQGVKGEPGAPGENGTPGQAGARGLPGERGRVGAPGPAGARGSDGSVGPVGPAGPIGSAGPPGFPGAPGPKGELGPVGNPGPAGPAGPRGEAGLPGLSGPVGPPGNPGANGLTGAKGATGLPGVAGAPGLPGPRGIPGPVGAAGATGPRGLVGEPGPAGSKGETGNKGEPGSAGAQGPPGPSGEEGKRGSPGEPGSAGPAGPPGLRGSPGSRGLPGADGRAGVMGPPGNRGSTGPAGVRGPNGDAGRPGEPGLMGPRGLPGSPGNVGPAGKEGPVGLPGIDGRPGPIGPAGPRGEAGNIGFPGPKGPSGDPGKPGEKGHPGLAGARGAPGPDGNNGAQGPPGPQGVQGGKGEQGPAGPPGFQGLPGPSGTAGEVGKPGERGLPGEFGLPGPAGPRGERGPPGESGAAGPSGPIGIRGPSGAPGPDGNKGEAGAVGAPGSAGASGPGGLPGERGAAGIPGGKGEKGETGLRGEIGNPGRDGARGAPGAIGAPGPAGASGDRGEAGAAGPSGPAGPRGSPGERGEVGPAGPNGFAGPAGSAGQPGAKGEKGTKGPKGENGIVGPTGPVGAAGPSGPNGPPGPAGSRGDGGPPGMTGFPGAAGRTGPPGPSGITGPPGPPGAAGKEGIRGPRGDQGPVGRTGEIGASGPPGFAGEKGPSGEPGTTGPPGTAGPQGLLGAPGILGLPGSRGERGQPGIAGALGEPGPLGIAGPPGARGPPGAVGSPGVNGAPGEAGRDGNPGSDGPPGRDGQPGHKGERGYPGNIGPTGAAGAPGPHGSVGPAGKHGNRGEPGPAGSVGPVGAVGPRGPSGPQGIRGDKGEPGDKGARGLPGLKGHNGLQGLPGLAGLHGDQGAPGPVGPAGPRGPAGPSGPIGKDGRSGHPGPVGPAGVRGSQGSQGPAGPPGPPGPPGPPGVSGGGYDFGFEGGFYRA

B1: mTurquoise2-CNA35 (domain or fragment)
chain: ARDISSTNVTDLTVSPSKIEDGGKTTVKMTFDDKNGKIQNGDMIKVAWPTSGTVKIEGYSKTVPLTVKGEQVGQAVITPDGATITFNDKVEKLSDVSGFAEFEVQGRNLTQTNTSDDKVATITSGNKSTNVTVHKSEAGTSSVFYYKTGDMLPEDTTHVRWFLNINNEKSYVSKDITIKDQIQGGQQLDLSTLNINVTGTHSNYYSGQSAITDFEKAFPGSKITVDNTKNTIDVTIPQGYGSYNSFSINYKTKITNEQQKEFVNNSQAWYQEHGKEEVNGKSFNHTVHNINANAGIEGTVKGELKVLKQDKDTKA
notes: CNA35: domains N1 and N2 of the A-region of Staphylococcus aureus collagen adhesion protein, amino acids 30-344; Order: His-tag, thrombin cleavage site, mTurquoise2, flexible linkage of about 20 amino acids, CNA35; 65.2 kDa; also called FP-CNA35; N-terminal fusion of mTurquoise2 to CNA35; not shown: mTurquoise2, N-terminal, kept
For B1, the Kd is about 1000 nM.

B2: CNA35-mAmetrine (domain or fragment)
chain: B1 chain
notes: CNA35: domains N1 and N2 of the A-region of Staphylococcus aureus collagen adhesion protein, amino acids 30-344; Order: His-tag, thrombin cleavage site, CNA35, flexible linkage of about 20 amino acids, mAmetrine; 64.4 kDa; also called CNA35-FP; C-terminal fusion of mAmetrine to CNA35; not shown: mAmetrine, C-terminal, kept
Regarding B2, the Kd is about 1000 nM.

B3: mCherry-CNA35 (domain or fragment)
chain: B1 chain
notes: CNA35: domains N1 and N2 of the A-region of Staphylococcus aureus collagen adhesion protein, amino acids 30-344; Order: His-tag, thrombin cleavage site, mCherry, flexible linkage of about 20 amino acids, CNA35; 64.6 kDa; also called FP-CNA35; N-terminal fusion of mCherry to CNA35; not shown: mCherry, N-terminal, kept
For B3, the Kd is about 1000 nM.

B4: CNA35-mTurquoise2 (domain or fragment)
chain: B1 chain
notes: CNA35: domains N1 and N2 of the A-region of Staphylococcus aureus collagen adhesion protein, amino acids 30-344; Order: His-tag, thrombin cleavage site, CNA35, flexible linkage of about 20 amino acids, mTurquoise2; 65.0 kDa; also called CNA35-FP; C-terminal fusion of mTurquoise2 to CNA35; not shown: mTurquoise2, C-terminal, kept
In the case of B4, the Kd is about 1000 nM.

B5: LSSmOrange-CNA35 (domain or fragment)
chain: B1 chain
notes: CNA35: domains N1 and N2 of the A-region of Staphylococcus aureus collagen adhesion protein, amino acids 30-344; Order: His-tag, thrombin cleavage site, LSSmOrange, flexible linkage of about 20 amino acids, CNA35; 64.6 kDa; also called FP-CNA35; N-terminal fusion of LSSmOrange to CNA35; not shown: LSSmOrange, N-terminal, kept
Turning to B5, the Kd was about 1000 nM.

B6: CNA35-mCherry (domain or fragment)
chain: B1 chain
notes: CNA35: domains N1 and N2 of the A-region of Staphylococcus aureus collagen adhesion protein, amino acids 30-344; Order: His-tag, thrombin cleavage site, CNA35, flexible linkage of about 20 amino acids, mCherry; 64.7 kDa; also called CNA35-FP; C-terminal fusion of mCherry to CNA35; not shown: mCherry, C-terminal, kept
As to B6, the Kd is about 1000 nM.

B7: CNA35-LSSmOrange (domain or fragment)
chain: B1 chain
notes: CNA35: domains N1 and N2 of the A-region of Staphylococcus aureus collagen adhesion protein, amino acids 30-344; Order: His-tag, thrombin cleavage site, CNA35, flexible linkage of about 20 amino acids, LSSmOrange; 64.7 kDa; also called CNA35-FP; C-terminal fusion of LSSmOrange to CNA35; not shown: LSSmOrange, C-terminal, kept
With B7, the Kd is about 1000 nM.

B8: mAmetrine-CNA35 (domain or fragment)
chain: B1 chain
notes: CNA35: domains N1 and N2 of the A-region of Staphylococcus aureus collagen adhesion protein, amino acids 30-344; Order: His-tag, thrombin cleavage site, mAmetrine, flexible linkage of about 20 amino acids, CNA35; 64.3 kDa; also called FP-CNA35; N-terminal fusion of mAmetrine to CNA35; not shown: mAmetrine, N-terminal, kept
Turning to B8, the Kd was about 1000 nM.

B9: tdTomato-CNA35 (domain or fragment)
chain: B1 chain
notes: CNA35: domains N1 and N2 of the A-region of Staphylococcus aureus collagen adhesion protein, amino acids 30-344; Order: His-tag, thrombin cleavage site, tdTomato, flexible linkage of about 20 amino acids, CNA35; 92.5 kDa; also called FP-CNA35; N-terminal fusion of tdTomato to CNA35; not shown: tdTomato, N-terminal, kept
For the molecule B9, the Kd was about 1000 nM.

B10: CNA35-tdTomato (domain or fragment)
chain: B1 chain
notes: CNA35: domains N1 and N2 of the A-region of Staphylococcus aureus collagen adhesion protein, amino acids 30-344; Order: His-tag, thrombin cleavage site, CNA35, flexible linkage of about 20 amino acids, tdTomato; 93.1 kDa; also called CNA35-FP; C-terminal fusion of tdTomato to CNA35; not shown: tdTomato, C-terminal, kept
For B10, the Kd was about 1000 nM.

B11: CNA35-EGFP (domain or fragment)
chain: B1 chain
notes: CNA35: domains N1 and N2 of the A-region of Staphylococcus aureus collagen adhesion protein, amino acids 30-344; Order: His-tag, thrombin cleavage site, CNA35, flexible linkage of about 20 amino acids, EGFP; 65.1 kDa; also called CNA35-FP; C-terminal fusion of EGFP to CNA35; not shown: EGFP, C-terminal, kept
Consider B11, for which the Kd is about 1000 nM.

B12: EGFP-CNA35 (domain or fragment)
chain: B1 chain
notes: CNA35: domains N1 and N2 of the A-region of Staphylococcus aureus collagen adhesion protein, amino acids 30-344; Order: His-tag, thrombin cleavage site, EGFP, flexible linkage of about 20 amino acids, CNA35; 65.0 kDa; also called N-terminal fusion of EGFP to CNA35; not shown: EGFP, N-terminal, kept
Turning to B12, the Kd was about 1000 nM.
